The numbers were not newly measured in article PMC7114193, which cites them from elsewhere.

This data set deals with ACE2 (Homo sapiens) (UniProt Q9BYF1).
Chain of ACE2 (Homo sapiens) (Q9BYF1 18-740): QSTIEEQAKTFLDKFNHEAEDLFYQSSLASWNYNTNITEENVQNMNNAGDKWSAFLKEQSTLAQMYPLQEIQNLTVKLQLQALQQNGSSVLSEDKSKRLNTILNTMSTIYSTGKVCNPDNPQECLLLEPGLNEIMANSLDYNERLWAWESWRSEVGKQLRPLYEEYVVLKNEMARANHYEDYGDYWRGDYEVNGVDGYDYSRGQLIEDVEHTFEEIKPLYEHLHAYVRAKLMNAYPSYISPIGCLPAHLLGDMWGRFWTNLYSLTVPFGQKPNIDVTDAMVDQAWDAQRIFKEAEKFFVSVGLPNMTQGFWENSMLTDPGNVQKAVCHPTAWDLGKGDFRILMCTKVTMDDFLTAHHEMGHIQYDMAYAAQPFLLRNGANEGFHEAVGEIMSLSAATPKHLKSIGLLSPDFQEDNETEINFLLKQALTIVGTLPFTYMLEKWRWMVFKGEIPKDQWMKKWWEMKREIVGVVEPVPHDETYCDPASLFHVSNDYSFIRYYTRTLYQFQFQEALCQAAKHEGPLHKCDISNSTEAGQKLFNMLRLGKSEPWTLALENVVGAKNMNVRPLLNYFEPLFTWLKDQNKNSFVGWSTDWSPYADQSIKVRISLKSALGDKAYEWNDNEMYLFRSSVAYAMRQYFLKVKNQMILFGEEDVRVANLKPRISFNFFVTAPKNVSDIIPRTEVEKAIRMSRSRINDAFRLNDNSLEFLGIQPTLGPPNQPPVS

With RBD-Fc 318-510 (from UniProt P59594), the Kd was 10 nM.
